What was measured:
[1] = Biotransformation of dodecanoic acid to δ-dodecalactone by CYP505An expressed in Pichia pastoris; assay type: cell-based; details: 10 mM fatty acid, 12 h, acidified
Description: (§1) A transformant of Pichia pastoris KM71 harbouring the gene encoding CYP505An (SEQ ID No 5) was grown and harvested as described above. The harvested cells were resuspended 1 g in 40 ml of MOPS (200 mM, 100 mM glucose, 100 mM glycerol, pH 8) buffer and 12.5 ml was transferred to each of two 500 ml Erlenmeyer flask. One flask was supplemented with 250 μl of a 500 mM dodecanoic acid stock solution (in DMSO) and the other flask with 250 μl of a 500 mM tetradecanoic acid stock solution (in DMSO) to give in each case a final concentration of 10 mM of the fatty acid. The flasks were incubated at 25° C. and 180 rpm for 12 h. Samples (800 μl) were withdrawn after 12 h and 136 μl of 5 M HCl added. These samples were stored for 5-6 h at room temperature to convert hydroxy fatty acids to the lactone. These were then extracted with ethyl acetate (2×800 μl).

[2] = Biotransformation of tetradecanoic acid to δ-dodecalactone by CYP505An expressed in Pichia pastoris; assay type: cell-based; details: 10 mM fatty acid, 12 h, acidified; via β-oxidation
Description: as §1

[3] = Biotransformation of dodecanoic acid using CFE of E. coli, Tris-HCl buffer; assay type: biochemical; details: C12 fatty acid; CYP505A1 only tested in CFEs of E. coli
Description: (§2) Expression of genes in E. coli was performed by using ZYP-5052 auto-induction medium (Table 1) with in the case of the CYP 1 mM 5-aminolevulinic acid and 0.05 mM FeCl3 added. The CYP505E3 culture was cultivated using baffled flasks and incubated at 20° C. and 180 rpm for 24 h, while the GDH, and HLADH expressing cultures were all cultivated at 25° C. and 200 rpm for 24 h. Cultures were harvested through centrifugation (6 000×g, 10 min) and 1 g (wet weight) resuspended in 2 ml, 5 ml or 10 ml Tris-HCl, Phosphate or MOPS buffer, as indicated, (pH 8, 200 mM) containing 100 mM of glucose and glycerol. CFEs were obtained by a single passage of the suspended cells through a One Shot Cell Disrupter (Constant Systems) at 207 MPa. The soluble fraction was separated from unbroken cells by centrifugation (20 000×g, 20 min).
(§3) The biotransformation reaction mixture (BRM) consisted of CYP and GDH CFE suspensions prepared from cells in Tris-HCl buffers (1 g wet weight in 2 ml buffer) mixed in a 1:1 ratio with 0.1 mM NADPH added. Dodecanoic acid, tetradecanoic acid, hexadecanoic acid, 1-tetradecanol and 1-hexadecanol (20 μl of a 255 mM stock solution in DMSO) were added to 40 ml amber glass vials containing 1 ml BRM to give final substrate concentrations of 5 mmol·LBRM^−1. These vials were placed on an orbital shaker at 20° C., 200 rpm, oscillation amplitude 26 mm. Vials were removed after 24 h for extraction. Biotransformations were stopped by adding 170 ul of 0.5M HCl, extracted with 2×500 μl EtOAc and subjected to GC-MS analysis. A sample of δ-dodecalactone in ethyl acetate (0.1 mM) was also methylated with TMSH and subjected to GC-MS analysis.

[4] = Biotransformation of 1-tetradecanol using CFE of E. coli, Tris-HCl buffer; assay type: biochemical; details: C14 alcohol; CYP505A1 only tested in CFEs of E. coli
Description: as §2
The biotransformation reaction mixture (BRM) consisted of CYP and GDH CFE suspensions prepared from cells in Tris-HCl buffers (1 g wet weight in 2 ml buffer) mixed in a 1:1 ratio with 0.1 mM NADPH added. Dodecanoic acid, tetradecanoic acid, hexadecanoic acid, 1-tetradecanol and 1-hexadecanol (20 μl of a 255 mM stock solution in DMSO) were added to 40 ml amber glass vials containing 1 ml BRM to give final substrate concentrations of 5 mmol·LBRM^−1. These vials were placed on an orbital shaker at 20° C., 200 rpm, oscillation amplitude 26 mm. […]

[5] = Biotransformation of hexadecanoic acid using CFE of E. coli, Tris-HCl buffer; assay type: biochemical
Description: as §2, §3

[6] = Biotransformation of tetradecanoic acid using CFE of E. coli, Tris-HCl buffer; assay type: biochemical
Description: as §2, §3

[7] = C16 fatty acid, GC-MS peak height
[8] = C14 fatty acid, CYP505A1 only tested in CFEs of E. coli

| Molecule | δ-dodecalactone production from dodecanoic acid [1] | δ-dodecalactone production from tetradecanoic acid [2] | other hydroxylase activities (in brackets) C12FA [3] | ω-7 hydroxylase activity C12FA [3] | ω-7 hydroxylase activity C14o [4] | products identified from hexadecanoic acid (GC-MS, methylated samples) ([5]; 5 mmol/L substrate, Tris-HCl, 24 h) | other hydroxylase activities (in brackets) C16FA [5, 7] | ω-7 hydroxylase activity C16FA [5, 7] | products identified from tetradecanoic acid (GC-MS, methylated samples) ([6]; 5 mmol/L substrate, CFE of E. coli, Tris-HCl, 24 h) | other hydroxylase activities (in brackets) C14FA [6, 8] | ω-7 hydroxylase activity C14FA [6, 8] |
| --- | --- | --- | --- | --- | --- | --- | --- | --- | --- | --- | --- |
| CYP505An: CYP505 cytochrome P450 monooxygenase from Aspergillus niger, SEQ ID No 5 (protein, Aspergillus niger) MKDAERIPGPKPLPVVGNLLDIDPEHGLQSIIAFADKYGPLFQITINGEKQIFATSQALVDELCDESRFHKAVVTGLEVLRLLAHDGLFTAYHGERGWGIAHRILVPAFGPLRIRNMLDDMSDVAQQLCLKWARQGGSTSINITEDFTRLTLDTIALCTMGFRLNSFYNNETMHPFVQSMLYVLKEADVQANLPGIANSIRVSAQRRMHKNIEAMRTMARGIIQERRKNKNPVDDILNTLLNGRDPVTGEGMSDDSIIDNVITFLIAGHETTSGLLSFTFYFLIQHPHILKKAQEEVDETVGLAQISAQHLAELPYIDAILKESLRLMPTAPGFAVTPKKTEVLGGKWMINAGQPVNVLLPACLRDQSVFGPDADEFHPERMLAENFSKLPPNSWKPFGNGERGCIGRAFAWQEAQLVVAMILQTFDLVPDDPSYQLRIKETLTIKPDGFRIRALLRRGQTATGLSRRSMLVARDGSSGESSNHLAEARGDHAPARGQPVSFFYGSNSGTCKALAHQLASNMMSRGYTTQKLAPLDNAVGNLPRDQPVIILTTTYDGQPTDDAKKFVAWLETGNVPSLQGISYAVFGCGHHDWTQTFYRIPILIDDLMHKAGATRLAPRGAANAAVSDLFSDLEAWEETSLLPALRENFLPSNSTDFDPLNPHQIQLSLSKPRRVDLHKGLIEAKVTAVRVLTSPDTPEKRHLEFCFQGDTSLRPGDHLNILPVNPPSTVSRVLAQFNLAPDYNITVNSFNTLGLPQATPVSASELFSSYVELCQPATRNNLKALIAATQSDPDKQELNRLYDSYEFIVRDKRVSVLDLLEQFPSISLPIAAFISMLPALRVRTYSLSMAPSFKPSHSSLTFSVINEPAWRGSGQHLGVASNYLASLTSGSIFYFSPRPAKESFHLPKDPSNTPIIMICAGSGLAPFLSFIQDRMVLKQQYKPLAKAFLFFGCRGRSLDDLYHEELSEFEAAGVVEIRRAYSKTPDFDIAKGCRYVQHRLVTEGQAILSLWSQNATIYVCGSTNMAKGVEAVLQNMLGPLPKERYVTEIF | δ-dodecalactone was produced | δ-dodecalactone was produced |  |  |  |  |  |  |  |  |  |
| CYP505A1: known sub-terminal fatty acid hydroxylase of medium chain fatty acids from Fusarium oxysporum, Seq ID No 8 (protein, listed as Fusarium oxysporum) MAESVPIPEPPGYPLIGNLGEFTSNPLSDLNRLADTYGPIFRLRLGAKAPIFVSSNSLINEVCDEKRFKKTLKSVLSQVREGVHDGLFTAFEDEPNWGKAHRILVPAFGPLSIRGMFPEMHDIATQLCMKFARHGPRTPIDTSDNFTRLALDTLALCAMDFRFYSYYKEELHPFIEAMGDFLTESGNRNRRPPFAPNFLYRAANEKFYGDIALMKSVADEVVAARKASPSDRKDLLAAMLNGVDPQTGEKLSDENITNQLITFLIAGHETTSGTLSFAMYQLLKNPEAYSKVQKEVDEVVGRGPVLVEHLTKLPYISAVLRETLRLNSPITAFGLEAIDDTFLGGKYLVKKGEIVTALLSRGHVDPVVYGNDADKFIPERMLDDEFARLNKEYPNCWKPFGNGKRACIGRPFAWQESLLAMVVLFQNFNFTMTDPNYALEIKQTLTIKPDHFYINATLRHGMTPTELEHVLAGNGATSSSTHNIKAAANLDAKAGSGKPMAIFYGSNSGTCEALANRLASDAPSHGFSATTVGPLDQAKQNLPEDRPVVIVTASYEGQPPSNAAHFIKWMEDLDGNDMEKVSYAVFACGHHDWVETFHRIPKLVDSTLEKRGGTRLVPMGSADAATSDMFSDFEAWEDIVLWPGLKEKYKISDEESGGQKGLLVEVSTPRKTSLRQDVEEALVVAEKTLTKSGPAKKHIEIQLPSAMTYKAGDYLAILPLNPKSTVARVFRRFSLAWDSFLKIQSEGPTTLPTNVAISAFDVFSAYVELSQPATKRNILALAEATEDKDTIQELERLAGDAYQAEISPKRVSVLDLLEKFPAVALPISSYLAMLPPMRVRQYSISSSPFADPSKLTLTYSLLDAPSLSGQGRHVGVATNFLSHLTAGDKLHVSVRASSEAFHLPSDAEKTPIICVAAGTGLAPLRGFIQERAAMLAAGRTLAPALLFFGCRNPEIDDLYAEEFERWEKMGAVDVRRAYSRATDKSEGCKYVQDRVYHDRADVFKVWDQGAKVFICGSREIGKAVEDVCVRLAIEKAQQNGRDVTEEMARAWFERSRNERFATDVFD |  |  | (+++) (+++ 1 million < RA < 10 million) | − | − | only sub-terminally hydroxylated products | (++) (++ 0.1 million < RA < 1 million) | − | only sub-terminally hydroxylated products | (++) (++ 0.1 million < RA < 1 million) | − |

Source: patent publication US10975360B2, “Process for the modification of alkanes, fatty acids and fatty alcohols” (priority 2016, dated 2021)
